Positions count from the first letter of the chain named. Names and notes keep the numbering of the source.
B1: A2B tRNA: tRNApyl Methanosarcina mazei with A10G, T14A, A52C mutations (nucleic acid)
DNA: GGAAACCTGGTCAAGTAGATCGAATGGACTCTAAATCCGTTCAGCCGGGTTCGATTCCCGGGGTTTCCG
modifications: expressed or natural sequence
notes: tRNApyl Methanosarcina mazei with A10G, T14A, A52C mutations
B2: H1-A1 tRNA: tRNA-A1 (A10G) under control of the H1 promoter (nucleic acid)
DNA: AATATTTGCATGTCGCTATGTGTTCTGGGAAATCACCATAAACGTGAAATCCCTATCAGTGATAGAGACTTATAAGTTCCCTATCAGTGATAGAGACACCAGGAAACCTGGTCATGTAGATCGAATGGACTCTAAATCCGTTCAGCCGGGTTAGATTCCCGGGGTTTCCGGACAAGTGCGGTTTTTTT
modifications: Synthetic sequence H1 tRNA-A1 construct
notes: tRNA-A1 (A10G) under control of the H1 promoter
B3: H1 A2 tRNA: tRNA-A2 (A10G, T14A) under control of the H1 promoter (nucleic acid)
DNA: B2 DNA with T115A
modifications: Synthetic sequence H1 tRNA-A2 construct
notes: tRNA-A2 (A10G, T14A) under control of the H1 promoter
B4: H1-B tRNA: tRNA-B (A52C) under control of the H1 promoter (nucleic acid)
DNA: B2 DNA with G111A, T152C
modifications: Synthetic sequence H1 tRNA-B construct
notes: tRNA-B (A52C) under control of the H1 promoter
B5: 7SL tRNA A1: tRNA-A1 downstream of the 7SL promoter 5′ region (nucleic acid)
DNA: CCCAGTTGATGACGTCACCATACCACAGCTTCTAGTGCTATTCTGCGCCGGTATCCGACCACCAGGAAACCTGGTCATGTAGATCGAATGGACTCTAAATCCGTTCAGCCGGGTTAGATTCCCGGGGTTTCCGGACAAGTGCGGTTTTT
modifications: Synthetic sequence 7SL tRNA-A1 construct
notes: tRNA-A1 downstream of the 7SL promoter 5′ region
B6: 7SL A2B: tRNA-A2B downstream of the 7SL promoter 5′ region (nucleic acid)
DNA: B5 DNA with T78A, A116C
modifications: Synthetic sequence 7SL tRNA-A2B construct
notes: tRNA-A2B downstream of the 7SL promoter 5′ region
B7: 7SL AB: tRNA-AB downstream of the 7SL promoter 5′ region (nucleic acid)
DNA: B5 DNA with A116C
modifications: Synthetic sequence 7SL tRNA-AB construct
notes: tRNA-AB downstream of the 7SL promoter 5′ region
B8: Vault WT tRNA: WT tRNApyl downstream of the Vault promoter 5′ region (nucleic acid)
DNA: TGGTCGCTGAGTCATGCTGAAGCACTCTCTTTTTGACTCACTCTTTGTGACGTAGGTCTTTCTCACCAGTCAATAAAATATAATCCGAAAGCAACCTCCCACCAGGAAACCTGATCATGTAGATCGAATGGACTCTAAATCCGTTCAGCCGGGTTAGATTCCCGGGGTTTCCGGACAAGTGCGGTTTTT
modifications: Synthetic sequence Vault tRNA-WT construct
notes: WT tRNApyl downstream of the Vault promoter 5′ region
B9: Vault B tRNA: tRNA-B downstream of the Vault promoter 5′ region (nucleic acid)
DNA: B8 DNA with A156C
modifications: Synthetic sequence Vault tRNA-B construct
notes: tRNA-B downstream of the Vault promoter 5′ region
B10: Vault A2B tRNA: tRNA-A2B downstream of the Vault promoter 5′ region (nucleic acid)
DNA: B8 DNA with A114G, T118A, A156C
modifications: Synthetic sequence Vault tRNA-A2B construct
notes: tRNA-A2B downstream of the Vault promoter 5′ region

What was measured:
[1] = system: GFPY40 reporter (GFP containing an amber codon) in HEK293 cells stably expressing pylRS; assay: Amber suppression-dependent GFP expression (GFPY40 reporter), transient transfection, flow cytometry; assay type: cell-based; settings: for capacity to support amber suppression relative to H1 WT tRNA (FIG. 4): all tRNA variants under control of the H1 promoter, 1 ug construct + 1 ug GFPY40, lys azide 2 mM, 18 hours; for GFP MFI, FIG. 8: 1 ug PCR product of each construct, lys azide nnAA
Description: (§1) To assess the function of the tRNA variants, an in vitro assay was established where cells are transiently transfected with a tRNA construct and a reporter construct encoding GFP containing an amber codon interrupting its reading frame (GFPY40). HEK293 cells stably expressing pylRS were transiently transfected with various tRNA constructs (1 ug) and the GFPY40 reporter (1 ug). In the absence of elements that support amber suppression, a truncated GFP protein is generated and the cell is not fluorescent. However, the introduction of a functional tRNA and the presence of a nnAA that supports amber suppression allows for the production of full length GFP resulting in fluorescent cells. The level of GFP expression reflects the efficiency of amber suppression and is quantified by flow cytometry. tRNA genes encoding wild type tRNApyl (WT tRNA), or containing mutations in the B-box (B tRNA—SEQ ID No 9), in both the A and B box (A2B tRNA—SEQ ID No 10), or in the A box (A1 tRNA-SEQ ID No 7; or A2 tRNA SEQ ID No 11), all under control of the H1 promoter were generated by site directed mutagenesis and assayed. The H1 promoter ensured that the variants were expressed and allowed us to examine the functional effects of the mutations introduced into the tRNA genes. In addition a sample transfected with GFPY40 alone was generated to establish background GFP levels. The transfected cells were grown in presence of the aminoacid analogue lys azide (2 mM) and incubated for 18 hours. GFP fluorescence was then assayed by flow cytometry and mean fluorescence intensity determined for each sample. Data were analysed with FCS Express and the mean fluorescence intensity of each sample determined using markers that constrain the data set to cells showing fluorescence above negative controls.
To begin to assess whether the tRNA mutations can support expression of the tRNA we assayed tRNA constructs encoding the wild type tRNA in the absence of the H1 promoter. Constructs encoding wild type tRNApyl (WT tRNA) or containing mutations in the B-box (B tRNA—SEQ ID No 9) or in both the A and B box (A2B; A2B tRNA—SEQ ID No 10) were assayed using our in vitro amber suppression assay described above. WT tRNA under control of the H1 promoter (H1-tRNA) was used as a positive control, and in addition one sample was transfected only with the GFPY40 reporter to illustrate background amber suppression in the absence of tRNA. The transfected cells were exposed to 2 mM lys-azide nnAA and cells incubated for three days. GFP expression was examined by flow cytometry and mean fluorescence intensity determined.
Two copies of the WT, B, or A2B tRNA were cloned in tandem to generate a single vector containing two copies of WT, B, or A2B tRNA. To assess the effect of increased gene doses by these constructs, cells expressing WTpylRS were transiently transfected with the tRNA constructs and the GFPY40 reporter construct and GFP expression assayed after two days.
The activity of each construct was assessed by transient transfection into cells stably expressing WT pylRS with the GFPY40 reporter as described above. For this experiment, 1 ug of a PCR product encoding each of the indicated constructs was used. In each case, cells were exposed to the lys azide nnAA for three days and GFP levels assayed by flow cytometry. Mean fluorescence intensities were determined for each sample and plotted (FIG. 8).

[2] = system: GFPY40 reporter in 3H7 cells; assay: Amber suppression-dependent GFP expression (GFPY40 reporter), transient transfection of 3H7 cells, flow cytometry; assay type: cell-based; settings: three days
Description: as §1, with “controls. […] The constructs thus are functional and may contain the necessary genetic sequence to enable the expression of the tRNA also in the absence of an upstream promoter element such as the H1 promoter.” for “controls.”
Having established that the B mutation introduced into the pyltRNA sequence enabled expression of the tRNA that supported amber suppression we then asked whether this mutation affected the orthogonality of the tRNA and led to the incorporation of natural amino acids. To do this 3H7 cells were transiently transfected with expression constructs encoding WT-tRNA, B-tRNA, H1-tRNA and H1-B tRNA along with the GFPY40 reporter. Transfected cells were grown in the presence of 2 mM lys azide or absence of nnAA as indicated (FIG. 6), and GFP expression assessed by flow cytometry after three days. In addition, a sample transfected only with GFPY40 was examined to determine background amber suppression levels in the absence of tRNA. […] A comparison of GFP expression between the WT tRNA (MFI 33,781) and tRNA B (232,505) lacking extragenic promoter elements confirms that the B mutation generates a functional intragenic promoter. Indeed, the B tRNA construct enabled a seven-fold increase in the level of amber suppression dependent expression of GFP over WT tRNA.
We also tested the utility of a bicistronic tRNA expression construct for its ability to express tRNApyl. Here, the murine tRNA Glu and tRNA Asp were utilized. In each case, multiple repeats of the constructs were generated to increase activity (3×Glu-pyl and 2×Asp-pyl). Here, 3H7 cells were transiently transfected with 1 ug of the reporter construct GFPY40 and 1 ug of the indicated tRNA expression vectors (FIG. 11) and incubated with lys-azide for three days. Data were collected by flow cytometry and mean fluorescence intensities for each sample were plotted. […] The construct consisting of the 7SL WT tRNA (MFI=312) was included as a metric for low efficiency. In addition cell lines containing only the GFPY40 reporter were used as negative controls (MFI=0).

[3] = 2 mM lys-azide nnAA, three days

Row | Molecule | capacity to support amber suppression relative to H1 WT tRNA (FIG. 4) [1] | GFP MFI, FIG. 8 ([1]; three days) | also measured
1 | B1 | support amber suppression, albeit at a lower level than the WT tRNA |  | GFP mean fluorescence intensity (MFI), FIG. 5 [1, 3]: 242,747.9; fold higher expression of GFP than the wt tRNA construct (FIG. 5) [1, 3]: 2.5 fold; GFP MFI, single copy tRNA, FIG. 7 ([1]; cells expressing WTpylRS, after two days, single copy): 61,950; GFP MFI, tandem copies of tRNA, FIG. 7 ([1]; cells expressing WTpylRS, after two days, single vector containing two copies in tandem): 96,158
2 | B2 | does not affect the activity of the tRNA |  | 
3 | B3 | does not affect the activity of the tRNA |  | 
4 | B4 |  |  | GFP MFI in the presence of lys-azide, FIG. 6 ([2]; 2 mM lys azide): 313,386; GFP MFI in the absence of nnAA, FIG. 6 ([2]; no nnAA): 36,217
5 | B5 |  | 114,393 | 
6 | B6 |  | 245,120 | 
7 | B7 |  | 210,380 | 
8 | B8 |  | 102,415 | 
9 | B9 |  | 170,838 | GFP MFI, FIG. 9 ([1]; 1 ug GFPY40 reporter and 1 ug tRNA expression plasmid): 168,298
10 | B10 |  | 154,445 | 

Reference: patent US10131920B2, “Nucleic acid molecules” (MEDIMMUNE LIMITED, priority 2013, dated 2018)
